From patent US20230234992A1

Target: S Stabilizing Construct #21, CoV2_S2_1_pross mutant Spike (S) protein (SARS-CoV-2) (UniProt P0DTC2)

CR3022 antibody (RBD Specific Antibody)
fold affinity decrease: 17 fold
